Molecular target: SMO657-nanoluc (UniProt P56726)
Assay: BRET
Settings: HEK293 cells; SMO657-nanoluc donor, YFP-tagged PKA-C acceptor; BRET ratio (YFP/nanoluc), background-subtracted; parent: est. 2.4; read off a plot

Sequence of UniProt P56726 (P56726 65-657): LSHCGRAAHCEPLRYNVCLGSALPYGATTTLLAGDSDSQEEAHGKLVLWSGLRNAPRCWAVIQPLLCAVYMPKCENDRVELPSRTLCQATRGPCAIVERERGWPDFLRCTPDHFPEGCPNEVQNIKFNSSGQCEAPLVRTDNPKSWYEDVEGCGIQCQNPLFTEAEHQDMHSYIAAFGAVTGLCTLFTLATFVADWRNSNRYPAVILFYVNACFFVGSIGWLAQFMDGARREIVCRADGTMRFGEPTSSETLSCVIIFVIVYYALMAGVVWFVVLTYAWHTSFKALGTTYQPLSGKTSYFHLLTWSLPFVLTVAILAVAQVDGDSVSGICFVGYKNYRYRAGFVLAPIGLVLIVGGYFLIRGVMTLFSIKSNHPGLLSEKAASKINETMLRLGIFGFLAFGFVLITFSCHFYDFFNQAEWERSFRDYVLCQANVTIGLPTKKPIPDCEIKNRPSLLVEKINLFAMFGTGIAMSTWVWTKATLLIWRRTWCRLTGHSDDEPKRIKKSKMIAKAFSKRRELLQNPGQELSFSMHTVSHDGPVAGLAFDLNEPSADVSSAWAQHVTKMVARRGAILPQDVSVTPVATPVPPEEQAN

Substance: PKA-C-YFP (PKA catalytic subunit alpha, carboxyl-terminally YFP-tagged) (from UniProt P05132) H87Q; W196R
- response: 2.5 BRET
